Measurements published in patent US12295997B2, “Prostate neoantigens and their uses” (Janssen Biotech, Inc., priority 2020, dated 2025).

Legend:
Assay in all cases: In vitro binding of neoantigens to class I MHC (UV peptide exchange, HLA class I ELISA)
Details in all cases: 100% = same binding as positive control peptide
[1] = target: HLA-B*07:02 (Homo sapiens, UniProt P01889)
Summary of the method: (§1)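 Biotinylated conditional HLA class I complexes loaded with allele-specific UV-labile peptide were UV-cleaved (neutral pH, on ice) in presence of 9-mer test peptides. Intact complexes captured on streptavidin, detected with HRP-anti-human B2M antibody by absorbance. Exchange efficiency normalized to exchange control peptide Pos (100%).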

[2] = target: HLA-A*02:01 (Homo sapiens, UniProt P04439, D140Y/D185E/D98H/E176V/E277Q/G131W/G231S/I119V/I121R/I166T/I218V/L300P/L318F/N151K/N90K/P208A/P217A/Q86G/Q94H/R138H/R169H/T345S)
Summary of the method: as §1

[3] = target: HLA-A*01:01 (Homo sapiens, UniProt P04439, A114D/A174V/A182V/D101N/D185E/E176A/E190D/L180R/Q94H/R68K/S129P/T187R/V100A/V91M/W191G)
Summary of the method: as §1

[4] = target: HLA-B*08:01 (Homo sapiens, UniProt P01889, A93T/A95T/D138N/E176V/E187T/K202T/Q94N/R180D/S35A/V36M/Y33D/Y91F)
Summary of the method: as §1

[5] = target: HLA-A*03:01 (Homo sapiens, UniProt P04439)
Description: The 9 mer peptides identified by bioinformatics analysis were analyzed for their binding propensities to 6 common HLA class I alleles (HLA-A*01:01, A*02:01, A*03:01, A*24:02, B*07:02, B*08:01). The principle of the method is briefly described below and consists of two parts, one involving exchange of peptide with a positive control induced by Ultraviolet (UV) radiation, and the second is an enzyme immunoassay to detect stable HLA-peptide and empty HLA complexes.
HLA-bound peptides are critical for the stability of the HLA complex. A conditional HLA class I complex was stabilized by an UV-labile peptide utilizing a different peptide (Pos) for each HLA (Pos: HLA-A*01:01: […](SEQ ID NO: 409), HLA-A*02:01: […] (SEQ ID NO: 410), HLA-A*03:01: […] (SEQ ID NO: 411), HLA-A*24:02: […] (SEQ ID NO: 412), HLA-B*07:02: […] (SEQ ID NO: 413), HLA-B*08:01: […] (SEQ ID NO: 414), which could be cleaved by UV irradiation when bound to the HLA molecule. Upon cleavage, the resulting peptide fragments dissociated from the HLA class I complex since their length was insufficient to bind stably to HLA. Under the conditions in which peptide cleavage was performed (neutral pH, on melting ice), the peptide-free HLA complex remained stable.
The exchange efficiency between the peptide of interest and Pos was analyzed using an HLA class I ELISA. The combined technologies allowed the identification of ligands for an HLA molecule of interest which are potentially immunogenic.
Exchange control peptide Pos was a high affinity binder to the relevant HLA class I allele while exchange control peptide Neg was a non-binder. The UV control represented UV-irradiation of conditional HLA class I complex in the absence of a rescue peptide.
The HLA class I ELISA is an enzyme immunoassay based on the detection of beta2-microglobulin (B2M) of (peptide-stabilized) HLA class I complexes. To this end streptavidin was bound onto polystyrene microtiter wells. After washing and blocking, HLA complex present in exchange reaction mixtures or ELISA controls was captured by the streptavidin on the microtiter plate via its biotinylated heavy chain. Non-bound material was removed by washing. Subsequently, horseradish peroxidase (HRP)-conjugated antibody to human B2M was added. The HRP-conjugated antibody binds only to an intact HLA complex present in the microtiter well because unsuccessful peptide exchange results in disintegration of the original UV-sensitive HLA complex upon UV illumination. In the latter case B2M was removed during the washing step. After removal of non-bound HRP conjugate by washing, a substrate solution was added to the wells. A coloured product formed in proportion to the amount of intact HLA complex present in the samples. After the reaction was terminated by the addition of a stop solution, absorbance was measured in a microtiter plate reader. The absorbance was normalized to the absorbance of an exchange control peptide (represents 100%). Suboptimal HLA binding of peptides with a moderate to low affinity for HLA class I molecules can also be detected by this ELISA technique (Rodenko, B et al. (2006) Nature Protocols 1: 1120-32).
Peptides that had 10% or greater exchange efficiency in one of the 6 HLA alleles were considered for further immunogenicity testing and analysis.
Binding of select neoepitopes to HLA-A*01:01, HLA-A*02:01, HLA-A*03:01, HLAA*24:02, HLAAB*07:02 and HLA-B*08:01 was evaluated using the assay described in Example 1. […] As a criterion for further evaluation, peptides with an exchange rate of at least 10% with the corresponding Pos peptide for at least one of the 6 HLA alleles that we considered for further evaluation. The exchange rates with the allele specific Pos peptides, of the 24 neoantigens so identified are summarized below in Table 17. Higher percentages correspond to stronger binding to the HLA allele.

P46 (DDRNTFDIVWWCPMSRLRLALTVPPSTTTTCVTVPAWAA; listed as Homo sapiens) [Peptide P46]
Exchange rate with allele specific Pos peptide, HLA-B*07:02 [1]: 64.8% | Exchange rate with allele specific Pos peptide, HLA-A*02:01 [2]: 14.4% | Exchange rate with allele specific Pos peptide, HLA-A*01:01 [3]: 2.4% | Exchange rate with allele specific Pos peptide, HLA-B*08:01 [4]: 14.5% | Exchange rate with allele specific Pos peptide, HLA-A*03:01 [5]: 10.3%

P58 (MMAEIISVHVPKILSGK; listed as Homo sapiens) [Peptide P58]
Exchange rate with allele specific Pos peptide, HLA-A*02:01 [2]: 11.8% | Exchange rate with allele specific Pos peptide, HLA-A*01:01 [3]: 2.5% | Exchange rate with allele specific Pos peptide, HLA-B*08:01 [4]: 5.3% | Exchange rate with allele specific Pos peptide, HLA-A*03:01 [5]: 32.5%

P56 (PKSEVRAKCKFSILNAK; listed as Homo sapiens) [Peptide P56]
Exchange rate with allele specific Pos peptide, HLA-B*07:02 [1]: 82.5% | Exchange rate with allele specific Pos peptide, HLA-A*02:01 [2]: 8.4% | Exchange rate with allele specific Pos peptide, HLA-A*01:01 [3]: 2.6% | Exchange rate with allele specific Pos peptide, HLA-B*08:01 [4]: 38% | Exchange rate with allele specific Pos peptide, HLA-A*03:01 [5]: 6.8%

YEAGMTLGGKILFFLFLLLPLSPFSLIF (listed as Homo sapiens) [Neoantigen P87]
Exchange rate with allele specific Pos peptide, HLA-B*07:02 [1]: 5% | Exchange rate with allele specific Pos peptide, HLA-A*02:01 [2]: 64% | Exchange rate with allele specific Pos peptide, HLA-A*01:01 [3]: 1.1% | Exchange rate with allele specific Pos peptide, HLA-B*08:01 [4]: 3.1% | Exchange rate with allele specific Pos peptide, HLA-A*03:01 [5]: 2.4%

P73 (DSSGNLLERNSFEVRV; listed as Homo sapiens) [Peptide P73]
Exchange rate with allele specific Pos peptide, HLA-B*07:02 [1]: 8.7% | Exchange rate with allele specific Pos peptide, HLA-A*02:01 [2]: 89.2% | Exchange rate with allele specific Pos peptide, HLA-A*01:01 [3]: 2.1% | Exchange rate with allele specific Pos peptide, HLA-B*08:01 [4]: 2.6% | Exchange rate with allele specific Pos peptide, HLA-A*03:01 [5]: 3.5%

P60 (CYLRRQKRLKCEKQPGA; listed as Homo sapiens) [Peptide P60]
Exchange rate with allele specific Pos peptide, HLA-B*07:02 [1]: 6.1% | Exchange rate with allele specific Pos peptide, HLA-A*02:01 [2]: 7.9% | Exchange rate with allele specific Pos peptide, HLA-A*01:01 [3]: 3.1% | Exchange rate with allele specific Pos peptide, HLA-B*08:01 [4]: 10.2% | Exchange rate with allele specific Pos peptide, HLA-A*03:01 [5]: 36.6%

SLYHREKQLIAMDSAI (listed as Homo sapiens) [Neoantigen P22]
Exchange rate with allele specific Pos peptide, HLA-A*02:01 [2]: 46.9% | Exchange rate with allele specific Pos peptide, HLA-A*01:01 [3]: 4.4% | Exchange rate with allele specific Pos peptide, HLA-B*08:01 [4]: 3.9% | Exchange rate with allele specific Pos peptide, HLA-A*03:01 [5]: 4.8%

P98: neoantigen 9 mer fragment used for PBMC stimulation (FIG. 5D) (IVWWCPMSR; listed as Homo sapiens) [Neoantigen P98]
Exchange rate with allele specific Pos peptide, HLA-B*07:02 [1]: 6.7% | Exchange rate with allele specific Pos peptide, HLA-A*02:01 [2]: 7.9% | Exchange rate with allele specific Pos peptide, HLA-A*01:01 [3]: 2.5% | Exchange rate with allele specific Pos peptide, HLA-B*08:01 [4]: 2.4% | Exchange rate with allele specific Pos peptide, HLA-A*03:01 [5]: 51.1%

YEAGMTLGEKFRVGNCKHLKMTRP (listed as Homo sapiens) [Neoantigen P82]
Exchange rate with allele specific Pos peptide, HLA-B*07:02 [1]: 12.9% | Exchange rate with allele specific Pos peptide, HLA-A*02:01 [2]: 6.3% | Exchange rate with allele specific Pos peptide, HLA-A*01:01 [3]: 1.5% | Exchange rate with allele specific Pos peptide, HLA-B*08:01 [4]: 1.4% | Exchange rate with allele specific Pos peptide, HLA-A*03:01 [5]: 58.1%

P61 (MFENGCYLGRQKRFKCE; listed as Homo sapiens) [Peptide P61]
Exchange rate with allele specific Pos peptide, HLA-A*02:01 [2]: 5.8% | Exchange rate with allele specific Pos peptide, HLA-A*01:01 [3]: 1.7% | Exchange rate with allele specific Pos peptide, HLA-B*08:01 [4]: 3.6% | Exchange rate with allele specific Pos peptide, HLA-A*03:01 [5]: 2.1%

P97 (GYLRMQGLMAQRLLLR; listed as Homo sapiens) [Peptide P97]
Exchange rate with allele specific Pos peptide, HLA-B*07:02 [1]: 7% | Exchange rate with allele specific Pos peptide, HLA-A*02:01 [2]: 4.6% | Exchange rate with allele specific Pos peptide, HLA-A*01:01 [3]: 2.5% | Exchange rate with allele specific Pos peptide, HLA-B*08:01 [4]: 2.7% | Exchange rate with allele specific Pos peptide, HLA-A*03:01 [5]: 39%

B1: P19 (peptide, listed as Homo sapiens)
chain: WTPIPVLTRWPLPHPPPWRRATSCRMARSSPSATSGSSVRRRCSSLPSWVWNLAASTRPRSTPS
Exchange rate with allele specific Pos peptide, HLA-B*07:02 [1]: 91.3% | Exchange rate with allele specific Pos peptide, HLA-A*02:01 [2]: 8.2% | Exchange rate with allele specific Pos peptide, HLA-A*01:01 [3]: 5.2% | Exchange rate with allele specific Pos peptide, HLA-B*08:01 [4]: 14.5% | Exchange rate with allele specific Pos peptide, HLA-A*03:01 [5]: 4.1%
